Measured values: publication PMC10157364 (Molecular Cancer Therapeutics, 2023)

Legend:
[1] = target: T1, mouse MIF treated with 0.2% Proclin300 (oxMIF surrogate) (Mus musculus, UniProt P34884, treated with 0.2% Proclin300 to transform MIF into an oxMIF surrogate); assay: ELISA; quantitative oxMIF ELISA: 15 nmol/L C0008, ON103 or ON203 as capture antibodies; human or mouse MIF in buffers with 0.2% Proclin300 as standard curves; EC50; conditions: both partners purified
T1 construct: mouse MIF; also called mouse oxMIF in solution; soluble mouse oxMIF; source: E. coli SHuffle T7 Express lysY, purified (DEAE flow-through, SP cation exchange, SEC or desalting)

[2] = target: T2, human MIF treated with 0.2% Proclin300 (oxMIF surrogate) (Homo sapiens, UniProt P14174, treated with 0.2% Proclin300 to transform MIF into an oxMIF surrogate); assay: SPR; Biacore 3000; antibodies amine-coupled to CM5 chips (about 2,500; 1,500; 1,000 RU); MIF at 42-666 nmol/L in HBS-EP with 0.2% Proclin300 (3 hours, room temperature), 30 uL/minute; Langmuir 1:1 model with mass transfer; mean of flow cells 2-4; conditions: both partners purified
T2 construct: human MIF; Same protein as m4, after treatment with Proclin300 (3 hours at room temperature for SPR); also called human oxMIF in solution; soluble human oxMIF; source: E. coli SHuffle T7 Express lysY, purified (DEAE flow-through, SP cation exchange, SEC or desalting)
T2 sequence (P14174 whole entry): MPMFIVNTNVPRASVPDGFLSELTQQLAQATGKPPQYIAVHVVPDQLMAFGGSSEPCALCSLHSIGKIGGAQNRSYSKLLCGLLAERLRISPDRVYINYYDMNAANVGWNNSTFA

Row | binding result [1] | binding result [2] | Binder
1 | binds | binds | C0008 (antibody, V domains shown, human IgG1 wt constant region; variable region shared with BaxB01 (PDB 6FOE); full-length light chain identical to that of imalumab; Human IgG1; also called imalumab; Bax69; source: ExpiCHO, transient expression, purified (Protein A MabSelect PrismA, HiTrap SP HP)) VH: EVQLLESGGGLVQPGGSLRLSCAASGFTFSIYSMNWVRQAPGKGLEWVSSIGSSGGTTYYADSVKGRFTISRDNSKNTLYLQMNSLRAEDTAVYYCAGSQWLYGMDVWGQGTTVTVSS VL: DIQMTQSPSSLSASVGDRVTITCRSSQRIMTYLNWYQQKPGKAPKLLIFVASHSQSGVPSRFRGSGSETDFTLTISGLQPEDSATYYCQQSFWTPLTFGGGTKVEIK
2 | binds | – | ON203 (antibody, V domains shown, heavy-chain variable domain of C0090: the VH of m1 with point mutations; heavy-chain constant region of an IgG1/IgG2 hybrid isotype with two point mutations (S239D/I332E) in the CH2 domain; light chain of C0090: as the light chain of m1 with point mutations in VL; Variable domains of C0090 on an IgG1/IgG2 hybrid constant region; also called second-generation anti-oxMIF mAb; lead candidate; …) VH: EVQLQESGGGLVQPGGSLRLSCAASGFTFSIYSMNWVRQAPGKGLEWVSSIGSSGGTTYYADSVKGRFTISRDNSKNTLYLQMNSLRAEDTAVYYCAGSQYLYGMDVWGQGTTVTVSS VL: DIQMTQSPSSLSASVGDRVTITCRSSQRIMTYLNWYQQKPGKAPKLLIYVGSHSQSGVPSRFRGSGSETDFTLTISGLQPEDSATYYCQQSFFTPLTFGGGTKVEIK
3 | binds | – | ON103 (antibody, V domains shown, heavy-chain variable domain of C0083: the VH of m1 with point mutations; heavy-chain constant region of an IgG1/IgG2 hybrid isotype with two point mutations (S239D/I332E) in the CH2 domain; light chain of C0083: as the light chain of m1 with point mutations in VL; Variable domains of C0083 on an IgG1/IgG2 hybrid constant region; also called second-generation anti-oxMIF mAb; lead candidate; …) VH: EVQLQESGGGLVQPGGSLRLSCAASGFTFSIYSMNWVRQAPGKGLEWVSSIGSSGGTTYYADSVKGRFTISRDNSKNTLYLQMNSLRAEDTAVYYCAGSQYLYGMDVWGQGTTVTVSS VL: DIQMTQSPSSLSASVGDRVTITCRSSQRILTYLNWYQQKPGKAPKLLIYVGSHSQSGVPSRFRGSGSETDFTLTISGLQSEDSATYYCQQSFFTPLTFGGGTKVEIK
